Reference: publication PMC7157757, “A Novel Combined Scientific and Artistic Approach for the Advanced Characterization of Interactomes: The Akirin/Subolesin Model” (Vaccines, 2020)

Molecular target: the molecule itself
Assay: SEC; HiPrep 16/60 Sephacryl S-100 HR; proteins incubated in PBS overnight at 4 °C before dilution in column buffer (50 mM sodium phosphate, 150 mM sodium chloride, pH 7.2); 0.8 mL/min; monomer and dimer

B1: Recombinant I. scapularis AKR/SUB (natural protein)
chain: not shown
notes: Akirin/Subolesin (AKR/SUB), Ixodes scapularis, Q4VRW2; also called Subolesin; tick SUB; source: Escherichia coli, Champion pET101 Directional TOPO Expression kit, as previously described [34,35]
stoichiometry N: 2
